T1: PCLO, Q9Y6V0
T1 sequence (Q9Y6V0 4491-4600, limits assumed, looked up): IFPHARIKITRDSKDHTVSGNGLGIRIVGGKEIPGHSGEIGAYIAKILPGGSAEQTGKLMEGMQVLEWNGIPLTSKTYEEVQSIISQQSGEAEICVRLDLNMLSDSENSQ

T2: NHERF3_4, Q5T2W1
T2 sequence (Q5T2W1 373-468, limits assumed, looked up): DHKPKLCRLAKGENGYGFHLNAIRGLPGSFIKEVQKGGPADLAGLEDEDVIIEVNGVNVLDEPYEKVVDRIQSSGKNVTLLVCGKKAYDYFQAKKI

T3: LIN7B, Q9HAP6
T3 sequence (Q9HAP6 88-185, limits assumed, looked up): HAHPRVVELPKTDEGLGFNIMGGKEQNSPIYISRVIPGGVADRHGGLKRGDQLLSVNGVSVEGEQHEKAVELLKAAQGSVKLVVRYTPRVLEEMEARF

T4: PDZD2_2, O15018
T4 sequence (O15018 329-429, limits assumed, looked up): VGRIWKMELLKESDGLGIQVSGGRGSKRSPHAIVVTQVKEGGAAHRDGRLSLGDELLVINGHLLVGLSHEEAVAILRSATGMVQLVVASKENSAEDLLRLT

T5: RADIL, Q96JH8
T5 sequence (Q96JH8 971-1071, limits assumed, looked up): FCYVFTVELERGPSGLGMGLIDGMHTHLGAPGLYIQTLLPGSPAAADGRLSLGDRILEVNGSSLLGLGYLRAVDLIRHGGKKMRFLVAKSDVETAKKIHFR

T6: GRIP1_4, Q9Y3R0
T6 sequence (Q9Y3R0 467-571, limits assumed, looked up): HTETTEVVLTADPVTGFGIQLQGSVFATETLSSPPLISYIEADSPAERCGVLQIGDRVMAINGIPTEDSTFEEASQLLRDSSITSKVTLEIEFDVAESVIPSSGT

T7: MPP7, Q5T2T1
T7 sequence (Q5T2T1 134-230, limits assumed, looked up): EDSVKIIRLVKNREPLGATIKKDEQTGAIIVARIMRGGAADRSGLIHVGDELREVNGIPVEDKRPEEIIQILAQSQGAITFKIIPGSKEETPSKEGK

T8: GRIP1_3, Q9Y3R0
T8 sequence (Q9Y3R0 247-346, limits assumed, looked up): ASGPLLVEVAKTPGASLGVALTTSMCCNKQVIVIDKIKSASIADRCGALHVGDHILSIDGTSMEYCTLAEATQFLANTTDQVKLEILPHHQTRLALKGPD

T9: MPP6, Q9NZW5
T9 sequence (Q9NZW5 125-219, limits assumed, looked up): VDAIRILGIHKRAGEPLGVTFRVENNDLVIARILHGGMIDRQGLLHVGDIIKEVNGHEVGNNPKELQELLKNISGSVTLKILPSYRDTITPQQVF

T10: PDZD7_3, Q9H5P4
T10 sequence (Q9H5P4 857-944, limits assumed, looked up): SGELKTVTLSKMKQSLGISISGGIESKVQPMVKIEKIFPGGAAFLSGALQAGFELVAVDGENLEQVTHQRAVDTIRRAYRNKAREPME

T11: APBA1_2, Q02410
T11 sequence (Q02410 742-832, limits assumed, looked up): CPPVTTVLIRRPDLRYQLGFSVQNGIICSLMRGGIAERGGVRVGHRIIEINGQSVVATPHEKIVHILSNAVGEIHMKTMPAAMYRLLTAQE


What was measured:
Assay in all cases: holdup assay
Parameters in all cases: key: below the threshold = too weak to quantify, mostly under pKd 3.1 to 4
Details in all cases: plain residues with an end cap or a label only (N-terminal biotin on a linker: ttds)
LNX1_1, Q8TBB1 = target: LNX1_1, Q8TBB1
FRMPD2_2, Q68DX3 = target: FRMPD2_2, Q68DX3
PCLO, Q9Y6V0 = target: T1, PCLO, Q9Y6V0
MAGI2_4, Q86UL8 = target: MAGI2_4, Q86UL8
MAGI1_2, Q96QZ7 = target: MAGI1_2, Q96QZ7
GRIP2_6, Q9C0E4 = target: GRIP2_6, Q9C0E4
LNX1_3, Q8TBB1 = target: LNX1_3, Q8TBB1
NHERF3_4, Q5T2W1 = target: T2, NHERF3_4, Q5T2W1
FRMPD2_3, Q68DX3 = target: FRMPD2_3, Q68DX3
LIN7B, Q9HAP6 = target: T3, LIN7B, Q9HAP6
PDZD2_2, O15018 = target: T4, PDZD2_2, O15018
RADIL, Q96JH8 = target: T5, RADIL, Q96JH8
FRMPD2_1, Q68DX3 = target: FRMPD2_1, Q68DX3
GRIP1_4, Q9Y3R0 = target: T6, GRIP1_4, Q9Y3R0
GIPC2, Q8TF65 = target: GIPC2, Q8TF65
Inadl_2, Q8NI35 = target: Inadl_2, Q8NI35
MPP7, Q5T2T1 = target: T7, MPP7, Q5T2T1
GRIP1_3, Q9Y3R0 = target: T8, GRIP1_3, Q9Y3R0
MPP6, Q9NZW5 = target: T9, MPP6, Q9NZW5
DLG1_1, Q12959 = target: DLG1_1, Q12959
LAP2, Q96RT1 = target: LAP2, Q96RT1
GORASP1, Q9BQQ3 = target: GORASP1, Q9BQQ3
PDZD7_3, Q9H5P4 = target: T10, PDZD7_3, Q9H5P4
CASK, O14936 = target: CASK, O14936
GRIP2_7, Q9C0E4 = target: GRIP2_7, Q9C0E4
DLG4_3, P78352 = target: DLG4_3, P78352
APBA1_2, Q02410 = target: T11, APBA1_2, Q02410

Chain of CASK, O14936 (O14936 487-570): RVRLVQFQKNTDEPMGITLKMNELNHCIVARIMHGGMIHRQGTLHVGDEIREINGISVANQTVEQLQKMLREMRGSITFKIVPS
Chain of DLG4_3, P78352 (P78352 306-403): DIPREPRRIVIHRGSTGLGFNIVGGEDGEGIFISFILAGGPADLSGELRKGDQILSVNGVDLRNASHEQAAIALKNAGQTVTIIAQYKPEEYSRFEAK
Chain of FRMPD2_2, Q68DX3 (Q68DX3 944-1038): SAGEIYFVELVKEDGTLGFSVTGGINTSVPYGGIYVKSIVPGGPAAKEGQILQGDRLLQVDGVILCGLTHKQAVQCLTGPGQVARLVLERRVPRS
Chain of LAP2, Q96RT1 (Q96RT1 other isoform, or with tags, fused parts or gaps): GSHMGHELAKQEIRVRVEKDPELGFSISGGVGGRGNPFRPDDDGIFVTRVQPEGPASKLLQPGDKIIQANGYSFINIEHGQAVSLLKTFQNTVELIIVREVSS
Chain of MAGI1_2, Q96QZ7 (Q96QZ7 456-580): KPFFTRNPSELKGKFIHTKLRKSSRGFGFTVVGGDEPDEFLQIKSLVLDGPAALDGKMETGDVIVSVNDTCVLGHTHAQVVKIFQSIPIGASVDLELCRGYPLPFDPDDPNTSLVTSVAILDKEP
Chain of FRMPD2_3, Q68DX3 (Q68DX3 1073-1166): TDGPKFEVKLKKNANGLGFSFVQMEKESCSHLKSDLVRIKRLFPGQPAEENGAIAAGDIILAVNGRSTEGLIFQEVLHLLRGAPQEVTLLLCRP
Chain of Inadl_2, Q8NI35 (Q8NI35 238-335): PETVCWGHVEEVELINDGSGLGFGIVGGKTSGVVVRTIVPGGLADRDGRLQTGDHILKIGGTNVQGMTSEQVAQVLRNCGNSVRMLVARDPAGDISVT
Chain of GIPC2, Q8TF65 (Q8TF65 112-203): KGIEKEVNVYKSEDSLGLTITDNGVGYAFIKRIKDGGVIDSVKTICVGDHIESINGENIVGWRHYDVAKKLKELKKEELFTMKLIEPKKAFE
Chain of GORASP1, Q9BQQ3 (Q9BQQ3 1-208): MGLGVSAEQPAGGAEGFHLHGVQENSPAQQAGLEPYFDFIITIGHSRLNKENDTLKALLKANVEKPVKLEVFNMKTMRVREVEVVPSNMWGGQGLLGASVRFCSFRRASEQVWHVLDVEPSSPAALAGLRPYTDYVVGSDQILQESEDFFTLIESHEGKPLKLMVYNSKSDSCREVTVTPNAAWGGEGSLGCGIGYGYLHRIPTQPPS
Chain of LNX1_3, Q8TBB1 (Q8TBB1 500-596): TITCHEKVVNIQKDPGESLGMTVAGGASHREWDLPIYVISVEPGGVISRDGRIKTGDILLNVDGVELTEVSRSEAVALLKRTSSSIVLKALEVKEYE
Chain of LNX1_1, Q8TBB1 (Q8TBB1 261-371): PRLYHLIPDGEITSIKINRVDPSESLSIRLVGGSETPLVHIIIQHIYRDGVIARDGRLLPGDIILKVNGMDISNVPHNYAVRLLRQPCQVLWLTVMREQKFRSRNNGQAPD
Chain of GRIP2_6, Q9C0E4 (Q9C0E4 648-740): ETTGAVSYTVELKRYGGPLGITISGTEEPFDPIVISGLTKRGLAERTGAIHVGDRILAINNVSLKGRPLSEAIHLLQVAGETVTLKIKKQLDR
Chain of FRMPD2_1, Q68DX3 (Q68DX3 770-861): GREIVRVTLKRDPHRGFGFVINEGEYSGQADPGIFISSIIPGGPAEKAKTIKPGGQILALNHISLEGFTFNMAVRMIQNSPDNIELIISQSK
Chain of GRIP2_7, Q9C0E4 (Q9C0E4 934-1023): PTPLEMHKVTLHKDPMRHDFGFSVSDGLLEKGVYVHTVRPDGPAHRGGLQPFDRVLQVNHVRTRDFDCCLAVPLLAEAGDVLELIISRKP
Chain of MAGI2_4, Q86UL8 (Q86UL8 772-865): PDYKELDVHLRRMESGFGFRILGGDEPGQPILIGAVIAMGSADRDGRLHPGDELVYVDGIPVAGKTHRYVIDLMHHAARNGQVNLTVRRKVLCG

Binder | pKd (LNX1_1, Q8TBB1) | pKd (FRMPD2_2, Q68DX3) | pKd (PCLO, Q9Y6V0) | pKd (MAGI2_4, Q86UL8) | pKd (MAGI1_2, Q96QZ7) | pKd (GRIP2_6, Q9C0E4) | pKd (LNX1_3, Q8TBB1) | pKd (NHERF3_4, Q5T2W1) | pKd (FRMPD2_3, Q68DX3) | pKd (LIN7B, Q9HAP6) | pKd (PDZD2_2, O15018) | pKd (RADIL, Q96JH8) | pKd (FRMPD2_1, Q68DX3) | pKd (GRIP1_4, Q9Y3R0) | pKd (GIPC2, Q8TF65) | pKd (Inadl_2, Q8NI35) | pKd (MPP7, Q5T2T1) | pKd (GRIP1_3, Q9Y3R0) | pKd (MPP6, Q9NZW5) | pKd (DLG1_1, Q12959) | other results
QPGTPTRTAV [MAP2K2, P36507] | 3.6 | below the threshold | below the threshold | 3.74 | below the threshold | below the threshold | 3.67 | below the threshold | below the threshold | below the threshold | 3.79 | 3.54 | below the threshold | below the threshold | below the threshold | below the threshold | below the threshold | below the threshold | 3.52 | 3.53 | pKd (LAP2, Q96RT1): below the threshold; pKd (GORASP1, Q9BQQ3): below the threshold; pKd (PDZD7_3, Q9H5P4): below the threshold; pKd (CASK, O14936): below the threshold; pKd (GRIP2_7, Q9C0E4): below the threshold; pKd (DLG4_3, P78352): below the threshold; pKd (APBA1_2, Q02410): 3.62
RRVRKLPSTTL [RPS6KA1, Q15418] | 3.76 | below the threshold | below the threshold | 3.78 | 4.3 | below the threshold | 3.66 | 3.65 | below the threshold | below the threshold | 3.55 | 3.54 | below the threshold | below the threshold | below the threshold | below the threshold | 3.61 | below the threshold | 3.73 | below the threshold | pKd (LAP2, Q96RT1): below the threshold; pKd (GORASP1, Q9BQQ3): below the threshold; pKd (PDZD7_3, Q9H5P4): 4.93; pKd (CASK, O14936): below the threshold; pKd (GRIP2_7, Q9C0E4): below the threshold; pKd (DLG4_3, P78352): below the threshold; pKd (APBA1_2, Q02410): below the threshold
CNTVTVETVV [MAS1, P04201] | 3.52 | below the threshold | below the threshold | 3.49 | below the threshold | below the threshold | below the threshold | 3.54 | 3.57 | below the threshold | 3.59 | 3.63 | below the threshold | below the threshold | below the threshold | below the threshold | below the threshold | below the threshold | 3.54 | 4.06 | pKd (LAP2, Q96RT1): 3.48; pKd (GORASP1, Q9BQQ3): below the threshold; pKd (PDZD7_3, Q9H5P4): 4.27; pKd (CASK, O14936): below the threshold; pKd (GRIP2_7, Q9C0E4): below the threshold; pKd (DLG4_3, P78352): below the threshold; pKd (APBA1_2, Q02410): below the threshold
TEEEVQDTRL [CFTR, P13569] | below the threshold | below the threshold | below the threshold | below the threshold | below the threshold | below the threshold | below the threshold | 4.08 | below the threshold | below the threshold | below the threshold | below the threshold | below the threshold | below the threshold | below the threshold | below the threshold | below the threshold | below the threshold | below the threshold | below the threshold | pKd (LAP2, Q96RT1): below the threshold; pKd (GORASP1, Q9BQQ3): below the threshold; pKd (PDZD7_3, Q9H5P4): 4.23; pKd (CASK, O14936): below the threshold; pKd (GRIP2_7, Q9C0E4): below the threshold; pKd (DLG4_3, P78352): below the threshold; pKd (APBA1_2, Q02410): below the threshold
NYWPGKETQL [SLCO1C1, Q9NYB5] | below the threshold | below the threshold | below the threshold | below the threshold | 4.15 | below the threshold | below the threshold | below the threshold | below the threshold | 4.68 | below the threshold | below the threshold | 4.05 | below the threshold | below the threshold | below the threshold | below the threshold | below the threshold | 3.74 | 4.74 | pKd (LAP2, Q96RT1): 3.92; pKd (GORASP1, Q9BQQ3): below the threshold; pKd (PDZD7_3, Q9H5P4): 4.62; pKd (CASK, O14936): below the threshold; pKd (GRIP2_7, Q9C0E4): below the threshold; pKd (DLG4_3, P78352): 4.18; pKd (APBA1_2, Q02410): 4.08
